T1: human RXFP1 receptor (human, UniProt Q9HBX9 1-757)
T1 sequence: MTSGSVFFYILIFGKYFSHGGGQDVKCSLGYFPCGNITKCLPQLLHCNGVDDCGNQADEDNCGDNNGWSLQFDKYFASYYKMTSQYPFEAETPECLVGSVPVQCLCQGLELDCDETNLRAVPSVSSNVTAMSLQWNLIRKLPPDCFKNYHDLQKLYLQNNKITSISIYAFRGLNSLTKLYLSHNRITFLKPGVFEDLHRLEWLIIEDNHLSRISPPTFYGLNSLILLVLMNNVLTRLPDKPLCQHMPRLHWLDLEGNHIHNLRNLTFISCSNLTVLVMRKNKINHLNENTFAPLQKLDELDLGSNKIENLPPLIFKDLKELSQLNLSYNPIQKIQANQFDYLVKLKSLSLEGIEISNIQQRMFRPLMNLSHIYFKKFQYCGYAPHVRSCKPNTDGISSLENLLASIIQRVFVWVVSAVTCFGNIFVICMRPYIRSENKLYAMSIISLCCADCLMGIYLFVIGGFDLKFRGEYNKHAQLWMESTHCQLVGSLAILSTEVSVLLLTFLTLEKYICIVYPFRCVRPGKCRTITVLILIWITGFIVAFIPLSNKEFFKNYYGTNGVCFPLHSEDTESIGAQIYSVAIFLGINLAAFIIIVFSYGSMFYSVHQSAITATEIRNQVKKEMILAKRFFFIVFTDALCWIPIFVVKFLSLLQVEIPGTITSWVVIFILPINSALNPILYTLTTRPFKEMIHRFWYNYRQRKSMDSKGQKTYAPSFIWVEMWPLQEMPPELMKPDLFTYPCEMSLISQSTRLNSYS

B1: RLN Analog 5 (other)
chain: SWMEEVIKLCGRELVRAQIAICGMSTWSGGGSGGSGGGQLYSALANKCCHVGCTKRSLARFCGGGGQGGGGQGGGGQGGGGQGGGGQEVQLLESGGGLVQPGGSLRLSCAASGRYIDETAVAWFRQAPGKEREFVAGIGGGVDITYYADSVKGRFTISRDNSKNTLYLQMNSLRPEDTAVYYCAARPGRPLITSKVADLYPYWGQGTLVTVSSPP
notes: Single-chain fusion: RLN2 B chain (desB1) - L2 - RLN2 A chain - (G4Q)5 L1 - VHH (C-terminal)
B2: native, human RLN2 (ligand)
chain 1: QLYSALANKCCHVGCTKRSLARFC
chain 2: DSWMEEVIKLCGRELVRAQIAICGMSTWS
modifications: disulfide (positions not given here); not fully specified (bridges); ends not checked; also: two interchain and one intra-A-chain disulfide, pairing not given here
B3: RLN Analog 14 (other)
chain: EVQLLESGGGLVQPGGSLRLSCAASGRYIDETAVAWFRQAPGKGREFVAGIGGGVDITYYADSVKGRFTISRDNSKNTLYLQMNSLRPEDTAVYYCAARPGRPLITSKVADLYPYWGQGTLVTVSSPGPQPGPQPGPQPGPQPGPQPGPQPGPQPGPQALANKCCHVGCTKRSLARFCGGGSGGSGGGSWMEEVIKLCGRELVRAQIAICGMSTWS
notes: Single-chain fusion: VHH - (PGPQ)8 L1 - RLN2 A chain (desA1-4) - L2 - RLN2 B chain (desB1)
B4: RLN Analog 1 (other)
chain: EVQLLESGGGLVQPGGSLRLSCAASGRYIDETAVAWFRQAPGKEREFVAGIGGGVDITYYADSVKGRFTISRDNSKNTLYLQMNSLRPEDTAVYYCAARPGRPLITSKVADLYPYWGQGTLVTVSSGGGGQGGGGQGGGGQGGGGQGGGGQQLYSALANKCCHVGCTKRSLARFCGGGSGGSGGGSWMEEVIKLCGRELVRAQIAICGMSTWS
B5: RLN Analog 2 (other)
chain: EVQLLESGGGLVQPGGSLRLSCAASGRYIDETAVAWFRQAPGKEREFVAGIGGGVDITYYADSVKGRFTISRDNSKNTLYLQMNSLRPEDTAVYYCAARPGRPLITSKVADLYPYWGQGTLVTVSSPGPAPGPAPGPAPGPAPGPAPGPAPGPAPGPAQLYSALANKCCHVGCTKRSLARFCGGGSGGSGGGSWMEEVIKLCGRELVRAQIAICGMSTWS
notes: Single-chain fusion: VHH - (PGPA)8 L1 - RLN2 A chain - L2 - RLN2 B chain (desB1)

Ends that are not written are not given here.

One may read the Kd as the constant that tells how readily two partners part at equilibrium. A word on the koff: it is a measure of how fast the partners let go of each other. Usually kon stands for the rate constant with which the complex forms.

The first experiment addresses T1, human RXFP1 receptor. The experiment can be described thus: cell-based or functional assay.
B1: the “hRXFP1 EC50 nM GeoMean (cAMP CRE luciferase reporter assay, CHO cells expressing human RXFP1)” value was 8.1 nM.
The same measure, in the same setting: under B2 stands 0.15 nM.

For a further experiment, the target named is human RXFP2 receptor (human, UniProt Q8WXD0 1-754). The experiment can be described thus: cell-based or functional assay.
For the molecule B1, the “hRXFP2 EC50 nM GeoMean (cAMP CRE luciferase reporter assay, CHO cells expressing human RXFP2)” value turned out to be 98 nM.
Same read-out and setting: next, B2: 1.7 nM.

For another experiment, the target named is T2, rabbit serum albumin (rabbit, UniProt P49065 25-608).
T2 construct: Bought protein, immobilized on a CM5 chip by amine coupling; also called Rabbit SA
The experiment can be described thus: SPR (Biacore 8K), albumin immobilized on CM5 chip, 25 C. The method, then:
(§1) The immobilization of the serum albumin to a Series S Sensor Chip CM5 surface is performed according to the manufacturer's instructions (Amine Coupling Kit BR-1000-50). Briefly, carboxyl groups on the sensor chip surfaces (flow cell 1 and 2) are activated by injecting 70 μL of a mixture containing 75 mg/mL EDC and 11.5 mg/mL NHS at 10 μL/min. Human, cynomolgus monkey, mouse, rat, pig, dog, cow and rabbit serum albumin are diluted in 10 mM sodium acetate pH 4.0 (BR-1003-49) at […] and then injected over the activated chip surfaces (flow cell 2, channel 1 to 8) at 10 μL/min for 180 sec (human, mouse, rat, pig and cow serum albumin are obtained from Sigma Aldrich (St. Louis, MO); cynomolgus monkey serum albumin is obtained from Hölzel Diagnostika (Cologne, Germany); dog serum albumin is obtained from Molecular Innovations (Novi, MI); and rabbit serum albumin is obtained from Fitzgerald Industries Intl. (Acton, MA). The various serum albumins are covalently immobilized through free amines onto a carboxymethyl dextran-coated sensor chip CM5 targeting a surface density of about 100 (62-145) RU. Excess reactive groups on the surfaces (flow cell 1 and 2) are deactivated by injecting 70 μL of 1 M ETA HCl—NaOH pH 8.5.
(§2) 150 μl of sample is individually injecting sequentially across the immobilized serum albumins on the chip's surface and dissociating for 600 sec at 50 μL/min flow rate at 25° C. The surface is regenerated by injecting 10 mM glycine-HCl pH 1.5 (BR-1003-54) at 50 μL/min for 100 sec. The resulting sensorgrams are analyzed using Biacore 8K Insight Evaluation Software (version 2.0.15.12933) 1:1 binding kinetics model fitting to calculate the binding kinetic parameter association rate (ka), dissociation rate (kd), and equilibrium dissociation constant (KD).
As for B3, the binding result was “no binding (tested: 1000 nM (highest concentration tested))”.
Still for that read-out and setting: next, B4: “no binding (tested: 1000 nM (highest concentration tested))”.
Still for that read-out and setting: under B1 stands “no binding (tested: 1000 nM (highest concentration tested))”.
Take B5: the binding result is listed as “no binding (tested: 1000 nM (highest concentration tested))”.

The next experiment concerns the target T3, cow serum albumin (cow, UniProt P02769 25-607).
T3 construct: Bought protein, immobilized on a CM5 chip by amine coupling; also called Cow SA
The experiment can be described thus: SPR (Biacore 8K), albumin immobilized on CM5 chip, 25 C, steady state. The method, then:
as §1
150 μl of sample is individually injecting sequentially across the immobilized serum albumins on the chip's surface and dissociating for 600 sec at 50 μL/min flow rate at 25° C. The surface is regenerated by injecting 10 mM glycine-HCl pH 1.5 (BR-1003-54) at 50 μL/min for 100 sec. The resulting sensorgrams are analyzed using Biacore 8K Insight Evaluation Software ([…]).
A general note: In SPR one partner is held on a chip, and binding of the other changes the refractive index at the surface.
Regarding B3, the Kd is 34 nM.
Same read-out and setting: next, B1: 120 nM.

Another experiment has as its target T4, human serum albumin (human, UniProt P02768 25-609).
T4 construct: Bought protein, immobilized on a CM5 chip by amine coupling; also called Human SA
The experiment can be described thus: SPR (Biacore 8K), albumin immobilized on CM5 chip, 25 C, 1:1 kinetic fit. How it is done:
as §1, §2
On to B3, for which the dissociation constant (Kd) is 0.16 nM, the off-rate (koff) is 0.00019 s⁻¹ and the on-rate constant (kon) is 1.2e+06 M⁻¹ s⁻¹.
Consider B4, for which the Kd was 0.11 nM, the dissociation rate constant (koff) was 0.00011 s⁻¹ and the on-rate constant (kon) came out at 980000 M⁻¹ s⁻¹.
In the same order, the values of B1 are 0.45 nM, 0.00026 s⁻¹ and 580000 M⁻¹ s⁻¹.
The like results for B5 were, in that order, 0.1 nM, 9.5e-05 s⁻¹ and 920000 M⁻¹ s⁻¹.

The target in the next experiment is T5, cynomolgus monkey serum albumin (cynomolgus monkey, UniProt A2V9Z4 25-608).
T5 construct: Bought protein, immobilized on a CM5 chip by amine coupling; also called Cyno SA
The experiment is described as above. How it is done: as §1, §2
With B3, the Kd amounted to 0.61 nM, the koff is 0.00068 s⁻¹ and the on-rate (kon) was 1.1e+06 M⁻¹ s⁻¹.
In the same order, the values of B4 are 0.5 nM, 0.00053 s⁻¹ and 1.1e+06 M⁻¹ s⁻¹.
On to B1, for which the equilibrium dissociation constant (Kd) came out at 1.8 nM, the off-rate constant (koff) was 0.0015 s⁻¹ and the association rate constant (kon) amounted to 820000 M⁻¹ s⁻¹.
In the same order, the values of B5 are 0.45 nM, 0.00052 s⁻¹ and 1.2e+06 M⁻¹ s⁻¹.

In the next experiment the target is T6, mouse serum albumin (mouse, UniProt P07724 25-608).
T6 construct: Bought protein, immobilized on a CM5 chip by amine coupling; also called Mouse SA
Described as above. How it is done: as §1, §2
Molecule B3 came in with a Kd of 3.1 nM, a koff of 0.0046 s⁻¹ and a kon of 1.5e+06 M⁻¹ s⁻¹.
In the same order, the values of B4 are 3.3 nM, 0.0042 s⁻¹ and 1.3e+06 M⁻¹ s⁻¹.
Molecule B1 returned a dissociation constant Kd of 14 nM, a dissociation rate constant (koff) of 0.0083 s⁻¹ and an association rate constant (kon) of 590000 M⁻¹ s⁻¹.
In the same order, the values of B5 are 3.8 nM, 0.0042 s⁻¹ and 1.1e+06 M⁻¹ s⁻¹.

A further experiment addresses T7, rat serum albumin (rat, UniProt P02770 25-608).
T7 construct: Bought protein, immobilized on a CM5 chip by amine coupling; also called Rat SA
Described as above. The method, then: as §1, §2
For B3, the dissociation constant (Kd) was determined as 2.2 nM, the koff was determined as 0.0032 s⁻¹ and the association rate constant (kon) stood at 1.4e+06 M⁻¹ s⁻¹.
In the same order, the values of B4 are 2.1 nM, 0.0026 s⁻¹ and 1.2e+06 M⁻¹ s⁻¹.
In the same order, the values of B1 are 10 nM, 0.0072 s⁻¹ and 700000 M⁻¹ s⁻¹.
The like results for B5 were, in that order, 3 nM, 0.0029 s⁻¹ and 980000 M⁻¹ s⁻¹.

A further experiment deals with T8, pig serum albumin (pig, UniProt P08835 25-607).
T8 construct: Bought protein, immobilized on a CM5 chip by amine coupling; also called Pig SA
The description is as above. The method, then:
as §1, §2
With B3, the Kd is 6 nM, the koff came to 0.0058 s⁻¹ and the association rate constant (kon) came to 970000 M⁻¹ s⁻¹.
In the same order, the values of B4 are 7.1 nM, 0.0055 s⁻¹ and 780000 M⁻¹ s⁻¹.
Take B1: the Kd turned out to be 23 nM, the koff stood at 0.013 s⁻¹ and the kon is 580000 M⁻¹ s⁻¹.
The like results for B5 were, in that order, 8 nM, 0.0056 s⁻¹ and 690000 M⁻¹ s⁻¹.

The target of a further experiment is T9, dog serum albumin (dog, UniProt P49822 25-608).
T9 construct: Bought protein, immobilized on a CM5 chip by amine coupling; also called Dog SA
Described as above. How it is done: as §1, §2
As to B3, binding was characterised by a dissociation constant (Kd) of 1.1 nM, the koff was determined as 0.0017 s⁻¹ and the kon was 1.5e+06 M⁻¹ s⁻¹.
In the same order, the values of B4 are 1.2 nM, 0.0015 s⁻¹ and 1.3e+06 M⁻¹ s⁻¹.
In the same order, the values of B1 are 4.7 nM, 0.0034 s⁻¹ and 710000 M⁻¹ s⁻¹.
The molecule B5 had a Kd of 1.4 nM, an off-rate constant (koff) of 0.0015 s⁻¹ and a kon of 1e+06 M⁻¹ s⁻¹.

The target in a further experiment is T3, cow serum albumin. The experiment is described as above. The method, then: as §1, §2
With B4, the Kd turned out to be 37 nM, the dissociation rate constant (koff) was 0.05 s⁻¹ and the kon was 1.4e+06 M⁻¹ s⁻¹.
In the same order, the values of B5 are 50 nM, 0.049 s⁻¹ and 980000 M⁻¹ s⁻¹.

Values taken from patent US20260125446A1 (Eli Lilly, published 2026).
